{
  "source": "paper PMC11574045",
  "about": "(2024)",
  "binders": {"B1": {"name": "TEAD4, purified recombinant protein (natural protein)", "chain": "PAPPWQGRSVASSKLWMLEFSAFLEQQQDPDTYNKHLFVHIGQSSPSYSDPYLEAVDIRQIYDKFPEKKGGLKDLFERGPSNAFFLVKFWADLNTNIEDEGSSFYGVSSQYESPENMIITCSTKVCSFGKQVVEKVETEYARYENGHYSYRIHRSPLCEYMINFIHKLKHLPEKYMMNSVLENFTILQVVTNRDTQETLLCIAYVFEVSASEHGAQHHIYRLVKE"}},
  "target": "GLUP (macrocyclic version of glup) (disulfide-cyclization and C-terminal amidation (results); head-to-side-chain cross-linking with 1,3-dibromomethylbenzene (methods))",
  "data": [
    {"binder": "B1", "values": [
      {"measurement": "Kd", "value": 4.55, "unit": "µM"}
    ]}
  ]
}
